Assay results published in PMC12583452, “MCM5 UFMylation regulates replication origin firing and fork progression” (The EMBO Journal, 2025).
Positions count from the first letter of the chain named. Blank lines part the entries; values can stand above or below the binder they belong to.

Legend:
[1] = target: T1, His-UFL1 (UniProt O94874 1-794); test: pull-down; GST pull-down in vitro with purified GST-MCM5 and His-UFL1; bead-associated proteins analysed by western blot; conditions: both partners purified
T1 construct: UFL1; construct pet28a-UFL1; also called pet28a-UFL1; source: E. coli BL21, purified (Ni-NTA agarose)
T1 sequence (looked up): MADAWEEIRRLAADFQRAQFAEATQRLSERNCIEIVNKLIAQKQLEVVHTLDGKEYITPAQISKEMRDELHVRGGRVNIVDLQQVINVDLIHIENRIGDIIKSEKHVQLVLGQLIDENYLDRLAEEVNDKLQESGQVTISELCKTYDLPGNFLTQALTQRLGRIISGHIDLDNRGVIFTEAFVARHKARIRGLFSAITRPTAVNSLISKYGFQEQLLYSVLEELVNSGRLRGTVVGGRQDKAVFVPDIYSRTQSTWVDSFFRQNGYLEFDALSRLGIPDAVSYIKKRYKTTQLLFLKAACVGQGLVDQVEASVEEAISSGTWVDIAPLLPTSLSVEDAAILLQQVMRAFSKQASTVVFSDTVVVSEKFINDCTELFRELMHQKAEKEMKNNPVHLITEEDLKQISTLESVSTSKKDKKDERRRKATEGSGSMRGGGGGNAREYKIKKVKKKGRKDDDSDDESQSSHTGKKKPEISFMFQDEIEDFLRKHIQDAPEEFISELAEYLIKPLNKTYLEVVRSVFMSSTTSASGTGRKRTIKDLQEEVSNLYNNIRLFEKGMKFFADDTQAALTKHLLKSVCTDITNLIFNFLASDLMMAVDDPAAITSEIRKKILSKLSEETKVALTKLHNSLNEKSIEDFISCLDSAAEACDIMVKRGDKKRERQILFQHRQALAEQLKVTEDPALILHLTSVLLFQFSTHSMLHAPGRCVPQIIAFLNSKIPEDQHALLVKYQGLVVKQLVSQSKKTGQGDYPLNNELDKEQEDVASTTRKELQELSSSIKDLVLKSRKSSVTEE

[2] = target: T2, FLAG-MCM5 (K583R), expressed in HeLa cells (human, UniProt P33992 1-734, K583R); test: proximity ligation; HeLa cells transfected with FLAG-VEC, FLAG-MCM5 (WT) or FLAG-MCM5 (K583R), 1 h after release from double-thymidine block; PLA with CDC45; conditions: partners not purified
T2 construct: human MCM5, full-length cDNA in a pcDNA3.0 3XFLAG vector, point mutation K583R (UFMylation-resistant); also called KR; Lys583Arg; source: HeLa, transfected; in fixed cells (PLA) and in the chromatin fraction (IP)
T2 sequence (looked up): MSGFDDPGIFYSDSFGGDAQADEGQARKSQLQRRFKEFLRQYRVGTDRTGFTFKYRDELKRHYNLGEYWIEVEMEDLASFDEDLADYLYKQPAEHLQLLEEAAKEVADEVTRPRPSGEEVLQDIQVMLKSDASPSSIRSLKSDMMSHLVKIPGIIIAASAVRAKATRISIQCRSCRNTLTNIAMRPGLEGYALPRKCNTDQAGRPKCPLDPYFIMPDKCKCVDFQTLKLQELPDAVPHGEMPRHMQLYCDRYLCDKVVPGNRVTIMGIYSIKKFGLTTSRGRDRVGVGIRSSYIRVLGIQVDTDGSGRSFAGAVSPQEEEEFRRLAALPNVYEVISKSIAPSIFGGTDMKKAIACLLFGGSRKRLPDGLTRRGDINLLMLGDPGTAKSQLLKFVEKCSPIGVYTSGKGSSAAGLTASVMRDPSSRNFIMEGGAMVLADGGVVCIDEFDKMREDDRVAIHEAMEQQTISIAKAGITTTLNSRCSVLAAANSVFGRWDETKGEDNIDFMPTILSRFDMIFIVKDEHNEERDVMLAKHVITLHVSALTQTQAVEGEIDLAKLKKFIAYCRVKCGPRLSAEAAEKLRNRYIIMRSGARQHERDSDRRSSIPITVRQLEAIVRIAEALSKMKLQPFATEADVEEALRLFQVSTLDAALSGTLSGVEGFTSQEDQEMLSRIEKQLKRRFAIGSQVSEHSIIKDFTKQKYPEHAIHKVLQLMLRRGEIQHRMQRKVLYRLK

- binding result [1]: binds
B1: GST-MCM5 (natural protein, human, UniProt P33992 1-734, looked up)
chain: T2 sequence (looked up) with R583K
notes: human MCM5 in pGEX-4T-1; the GST construct is probably the same insert; also called pGEX-4T-1 MCM5; WT GST-MCM5; source: E. coli BL21, purified (Glutathione-Sepharose 4B)

- fold decrease in PLA foci per cell against WT MCM5 [2]: 4 fold
B2: CDC45 (endogenous, HeLa) (natural protein, human (endogenous in HeLa), UniProt O75419 1-566, looked up)
chain: MFVSDFRKEFYEVVQSQRVLLFVASDVDALCACKILQALFQCDHVQYTLVPVSGWQELETAFLEHKEQFHYFILINCGANVDLLDILQPDEDTIFFVCDTHRPVNVVNVYNDTQIKLLIKQDDDLEVPAYEDIFRDEEEDEEHSGNDSDGSEPSEKRTRLEEEIVEQTMRRRQRREWEARRRDILFDYEQYEYHGTSSAMVMFELAWMLSKDLNDMLWWAIVGLTDQWVQDKITQMKYVTDVGVLQRHVSRHNHRNEDEENTLSVDCTRISFEYDLRLVLYQHWSLHDSLCNTSYTAARFKLWSVHGQKRLQEFLADMGLPLKQVKQKFQAMDISLKENLREMIEESANKFGMKDMRVQTFSIHFGFKHKFLASDVVFATMSLMESPEKDGSGTDHFIQALDSLSRSNLDKLYHGLELAKKQLRATQQTIASCLCTNLVISQGPFLYCSLMEGTPDVMLFSRPASLSLLSKHLLKSFVCSTKNRRCKLLPLVMAAPLSMEHGTVTVVGIPPETDSSDRKNFFGRAFEKAAESTSSRMLHNHFDLSVIELKAEDRSKFLDALISLLS
notes: CDC45 (cell division cycle 45), endogenous in HeLa; also called cell division cycle 45; source: endogenous, HeLa (fixed cells for PLA; chromatin fraction)
